Measured values reported in paper PMC8961534, “Interaction with the Assembly Chaperone Ump1 Promotes Incorporation of the β7 Subunit into Half-Proteasome Precursor Complexes Driving Their Dimerization” (Biomolecules, 2022).

T1: β7-∆CTE (β7 without C-terminal extension), untagged (S. cerevisiae, UniProt P30657 1-247)
T1 construct: β7/Pre4, S. cerevisiae, C-terminal extension (CTE, the last 19 residues) deleted; propeptide present; source: E. coli, purified
T1 sequence (looked up): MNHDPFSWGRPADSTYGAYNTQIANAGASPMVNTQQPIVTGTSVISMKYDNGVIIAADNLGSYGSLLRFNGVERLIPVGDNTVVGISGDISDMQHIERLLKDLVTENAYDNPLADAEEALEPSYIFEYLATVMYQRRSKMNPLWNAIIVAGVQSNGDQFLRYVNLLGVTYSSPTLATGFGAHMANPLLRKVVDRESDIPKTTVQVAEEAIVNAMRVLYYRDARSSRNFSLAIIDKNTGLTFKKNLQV

B1: full-length Ump1-6His (natural protein, S. cerevisiae, UniProt P38293 1-148, looked up)
chain: MNIVPQDTFKSQVSTDQDKSVLSSAVPSLPDTLRQQEGGAVPLSTQLNDRHPLESTLKNWETTQRQRQMEQYRQIFGIAEPMKRTMEMEIVNRTDFNPLSTNGSIHRDILLNKECSIDWEDVYPGTGLQASTMVGDDVHSKIEKQLGI
notes: source: E. coli; not shown: 6His, C-terminal, kept

Columns and labels:
[1] = molecular target: ^17–148Ump1-6His (S. cerevisiae) (UniProt P38293); assay: fluorescence microscopy-based on-bead binding assay; Ump1-6His or ^17–148Ump1-6His from E. coli extracts bound to Ni-NTA beads and washed (20 mM imidazole); extracts with mNeonGreen fusion proteins, adjusted by fluorescence, added 1 h, 4 °C; beads imaged, quantified with Fiji (n = 5), empty vector background subtracted
[2] = molecular target: T1, β7-∆CTE (β7 without C-terminal …); assay: pull-down; native extracts of E. coli expressing Ump1-6His incubated with Ni-NTA resin, washed, then incubated with purified untagged β7 versions; elution with imidazole, anti-β7 and anti-Ump1 Western blotting, LI-COR quantification (n = 3); settings: both partners purified

Row | Molecule | reduction in binding efficiency against full-length Ump1 [1] [%] | binding result [2]
1 | full-length β7 (^1–266β7) fused to mNeonGreen and 2HA (from UniProt P30657 1-266) (natural protein) | 50 | –
2 | B1 | – | binds
